# Data: the RNAGym collection of RNA variant scans (doi:10.7554/elife.80360)
# B1: HDV Ribozyme (parent)
# chain: GGCCGGCAUGGUCCCAGCCUCCUCGCUGGCGCCGGCUGGGCAACAUUCCGAGGGGACCGUCCCCUCGGUAAUGGCGAAUGGGACCCA
# Variants of: B1
# Experiment: self-cleavage, relative activity (ratio to wild type); higher = more cleavage; co-transcriptional
row,Variant,self-cleavage
1,GGCCGGCAUGGUCCCAGCCUCCUCGCUGGCGCCUGCUGGGCAACAUCCCGAGGGGACCGUCCCCUCGGUAAUGGCGAAUGGGACCCA [G34U U47C],0.234
2,GGCCGGCAUGGUCCCAGCCUCCUCGCUGGCGCCUGCUGGGCAACAUUCCGAGGGGACCGUCCCCACGGUAAUGGCGAAUGGGACCCA [G34U U65A],0.0923
3,GGCCGGCAUGGUCCCAGCCUCCUCGCUGGCGCCUGCUGGGCAACAUUCCGAGGGGACCGUCCCCUCGGAAAUGGCGAAUGGGACCCA [G34U U69A],0.102
4,GGCCGGCAUGGUCCCAGCCUCCUCGCUGGCGCCUGCUGGGCAACAUUCCGAGGGGACCGUCCCCUCGGCAAUGGCGAAUGGGACCCA [G34U U69C],0.204
5,GGCCGGCAUGGUCCCAGCCUCCUCGCUGGCGCCUGCUGGGCAACAUUCCGAGGGGACCGUCCCCUCGGUAAGGGCGAAUGGGACCCA [G34U U72G],0.297
6,GGCCGGCAUGGUCCCAGCCUCCUCGCUGGCGCCGACUGGGCCACAUUCCGAGGGGACCGUCCCCUCGGUAAUGGCGAAUGGGACCCA [G35A A42C],0.277
7,GGCCGGCAUGGUCCCAGCCUCCUCGCUGGCGCCGACUGGGCUACAUUCCGAGGGGACCGUCCCCUCGGUAAUGGCGAAUGGGACCCA [G35A A42U],0.166
8,GGCCGGCAUGGUCCCAGCCUCCUCGCUGGCGCCGACUGGGCAGCAUUCCGAGGGGACCGUCCCCUCGGUAAUGGCGAAUGGGACCCA [G35A A43G],0.185
9,GGCCGGCAUGGUCCCAGCCUCCUCGCUGGCGCCGACUGGGCAUCAUUCCGAGGGGACCGUCCCCUCGGUAAUGGCGAAUGGGACCCA [G35A A43U],0.108
10,GGCCGGCAUGGUCCCAGCCUCCUCGCUGGCGCCGACUGGGCAACUUUCCGAGGGGACCGUCCCCUCGGUAAUGGCGAAUGGGACCCA [G35A A45U],0.406
11,GGCCGGCAUGGUCCCAGCCUCCUCGCUGGCGCCGACUGGGCAACAUUCCGGGGGGACCGUCCCCUCGGUAAUGGCGAAUGGGACCCA [G35A A51G],0.673
12,GGCCGGCAUGGUCCCAGCCUCCUCGCUGGCGCCGACUGGGCAACAUUCCGAGGGGGCCGUCCCCUCGGUAAUGGCGAAUGGGACCCA [G35A A56G],0.769
13,GGCCGGCAUGGUCCCAGCCUCCUCGCUGGCGCCGACUGGGCAACAUUCCGAGGGGACCGUCCCCUCGGUAAUGGCGGAUGGGACCCA [G35A A77G],0.277
14,GGCCGGCAUGGUCCCAGCCUCCUCGCUGGCGCCGACUGGGCAACAUUCCGAGGGGACCGUCCCCUCGGUAAUGGCGACUGGGACCCA [G35A A78C],0.0528
15,GGCCGGCAUGGUCCCAGCCUCCUCGCUGGCGCCGAAUGGGCAACAUUCCGAGGGGACCGUCCCCUCGGUAAUGGCGAAUGGGACCCA [G35A C36A],0.115
16,GGCCGGCAUGGUCCCAGCCUCCUCGCUGGCGCCGACUGGGAAACAUUCCGAGGGGACCGUCCCCUCGGUAAUGGCGAAUGGGACCCA [G35A C41A],0.562
17,GGCCGGCAUGGUCCCAGCCUCCUCGCUGGCGCCGACUGGGCAACAUUGCGAGGGGACCGUCCCCUCGGUAAUGGCGAAUGGGACCCA [G35A C48G],0.539
18,GGCCGGCAUGGUCCCAGCCUCCUCGCUGGCGCCGACUGGGCAACAUUUCGAGGGGACCGUCCCCUCGGUAAUGGCGAAUGGGACCCA [G35A C48U],0.499
19,GGCCGGCAUGGUCCCAGCCUCCUCGCUGGCGCCGACUGGGCAACAUUCGGAGGGGACCGUCCCCUCGGUAAUGGCGAAUGGGACCCA [G35A C49G],0.425
20,GGCCGGCAUGGUCCCAGCCUCCUCGCUGGCGCCGACUGGGCAACAUUCCGAGGGGAACGUCCCCUCGGUAAUGGCGAAUGGGACCCA [G35A C57A],0.545
21,GGCCGGCAUGGUCCCAGCCUCCUCGCUGGCGCCGACUGGGCAACAUUCCGAGGGGACCGUCACCUCGGUAAUGGCGAAUGGGACCCA [G35A C62A],0.526
22,GGCCGGCAUGGUCCCAGCCUCCUCGCUGGCGCCGACUGGGCAACAUUCCGAGGGGACCGUCCGCUCGGUAAUGGCGAAUGGGACCCA [G35A C63G],0.346

row,Variant,self-cleavage
1,GGCCGGCAUGGUCCCAGCCUCCUCGCUGGCGCCGACUGGGCAACAUUCCGAGGGGACCGUCCCGUCGGUAAUGGCGAAUGGGACCCA [G35A C64G],0.31
2,GGCCGGCAUGGUCCCAGCCUCCUCGCUGGCGCCGACUGGGCAACAUUCCGAGGGGACCGUCCCCUCGGUAAUGGGGAAUGGGACCCA [G35A C75G],0.218
3,GGCCGGCAUGGUCCCAGCCUCCUCGCUGGCGCCGACUGGGCAACAUUCCGAGGGGACCGUCCCCUCGGUAAUGGCGAAUGGGACUCA [G35A C85U],0.541
4,GGCCGGCAUGGUCCCAGCCUCCUCGCUGGCGCCGACUGGGCAACAUUCCGAGGGGACCGUCCCCUCGGUAAUGGCGAAUGGGACCUA [G35A C86U],0.712
5,GGCCGGCAUGGUCCCAGCCUCCUCGCUGGCGCCGACUGCGCAACAUUCCGAGGGGACCGUCCCCUCGGUAAUGGCGAAUGGGACCCA [G35A G39C],0.113
6,GGCCGGCAUGGUCCCAGCCUCCUCGCUGGCGCCGACUGGACAACAUUCCGAGGGGACCGUCCCCUCGGUAAUGGCGAAUGGGACCCA [G35A G40A],0.346
7,GGCCGGCAUGGUCCCAGCCUCCUCGCUGGCGCCGACUGGUCAACAUUCCGAGGGGACCGUCCCCUCGGUAAUGGCGAAUGGGACCCA [G35A G40U],0.42
8,GGCCGGCAUGGUCCCAGCCUCCUCGCUGGCGCCGACUGGGCAACAUUCCUAGGGGACCGUCCCCUCGGUAAUGGCGAAUGGGACCCA [G35A G50U],0.629
9,GGCCGGCAUGGUCCCAGCCUCCUCGCUGGCGCCGACUGGGCAACAUUCCGAGUGGACCGUCCCCUCGGUAAUGGCGAAUGGGACCCA [G35A G53U],0.736
10,GGCCGGCAUGGUCCCAGCCUCCUCGCUGGCGCCGACUGGGCAACAUUCCGAGGAGACCGUCCCCUCGGUAAUGGCGAAUGGGACCCA [G35A G54A],0.349
11,GGCCGGCAUGGUCCCAGCCUCCUCGCUGGCGCCGACUGGGCAACAUUCCGAGGGGACCGUCCCCUCGGUAAUGGCGAAUAGGACCCA [G35A G80A],0.196
12,GGCCGGCAUGGUCCCAGCCUCCUCGCUGGCGCCGACUGGGCAACAUUCCGAGGGGACCGUCCCCUCGGUAAUGGCGAAUCGGACCCA [G35A G80C],0.162
13,GGCCGGCAUGGUCCCAGCCUCCUCGCUGGCGCCGACUGGGCAACAUUCCGAGGGGACCGUCCCCUCGGUAAUGGCGAAUUGGACCCA [G35A G80U],0.151
14,GGCCGGCAUGGUCCCAGCCUCCUCGCUGGCGCCGACUGGGCAACACUCCGAGGGGACCGUCCCCUCGGUAAUGGCGAAUGGGACCCA [G35A U46C],0.289
15,GGCCGGCAUGGUCCCAGCCUCCUCGCUGGCGCCGACUGGGCAACAGUCCGAGGGGACCGUCCCCUCGGUAAUGGCGAAUGGGACCCA [G35A U46G],0
16,GGCCGGCAUGGUCCCAGCCUCCUCGCUGGCGCCGACUGGGCAACAUUCCGAGGGGACCGUCCCCACGGUAAUGGCGAAUGGGACCCA [G35A U65A],0.61
17,GGCCGGCAUGGUCCCAGCCUCCUCGCUGGCGCCGACUGGGCAACAUUCCGAGGGGACCGUCCCCUCGGUAAGGGCGAAUGGGACCCA [G35A U72G],0.251
18,GGCCGGCAUGGUCCCAGCCUCCUCGCUGGCGCCGACUGGGCAACAUUCCGAGGGGACCGUCCCCUCGGUAAUGGCGAAGGGGACCCA [G35A U79G],0.397
19,GGCCGGCAUGGUCCCAGCCUCCUCGCUGGCGCCGCCUGGGCAACCUUCCGAGGGGACCGUCCCCUCGGUAAUGGCGAAUGGGACCCA [G35C A45C],0
20,GGCCGGCAUGGUCCCAGCCUCCUCGCUGGCGCCGCCUGGGCAACUUUCCGAGGGGACCGUCCCCUCGGUAAUGGCGAAUGGGACCCA [G35C A45U],0.122
21,GGCCGGCAUGGUCCCAGCCUCCUCGCUGGCGCCGCCUGGGCAACAUUCCGAGGGGCCCGUCCCCUCGGUAAUGGCGAAUGGGACCCA [G35C A56C],0.302
22,GGCCGGCAUGGUCCCAGCCUCCUCGCUGGCGCCGCCUGGGCAACAUUCCGAGGGGACCGUCCCCUCGGUAAUGGCGACUGGGACCCA [G35C A78C],0.0519

row,Variant,self-cleavage
1,GGCCGGCAUGGUCCCAGCCUCCUCGCUGGCGCCGCGUGGGCAACAUUCCGAGGGGACCGUCCCCUCGGUAAUGGCGAAUGGGACCCA [G35C C36G],0.0978
2,GGCCGGCAUGGUCCCAGCCUCCUCGCUGGCGCCGCCUGGGCAACAUUCAGAGGGGACCGUCCCCUCGGUAAUGGCGAAUGGGACCCA [G35C C49A],0.119
3,GGCCGGCAUGGUCCCAGCCUCCUCGCUGGCGCCGCCUGGGCAACAUUCCGAGGGGACCGUACCCUCGGUAAUGGCGAAUGGGACCCA [G35C C61A],0.283
4,GGCCGGCAUGGUCCCAGCCUCCUCGCUGGCGCCGCCUGGGCAACAUUCCGAGGGGACCGUUCCCUCGGUAAUGGCGAAUGGGACCCA [G35C C61U],0.188
5,GGCCGGCAUGGUCCCAGCCUCCUCGCUGGCGCCGCCUGGGCAACAUUCCGAGGGGACCGUCGCCUCGGUAAUGGCGAAUGGGACCCA [G35C C62G],0.0594
6,GGCCGGCAUGGUCCCAGCCUCCUCGCUGGCGCCGCCUGGGCAACAUUCCGAGGGGACCGUCUCCUCGGUAAUGGCGAAUGGGACCCA [G35C C62U],0.0665
7,GGCCGGCAUGGUCCCAGCCUCCUCGCUGGCGCCGCCUGGGCAACAUUCCGAGGGGACCGUCCCGUCGGUAAUGGCGAAUGGGACCCA [G35C C64G],0.426
8,GGCCGGCAUGGUCCCAGCCUCCUCGCUGGCGCCGCCUGGGCAACAUUCCGAGGGGACCGUCCCCUGGGUAAUGGCGAAUGGGACCCA [G35C C66G],0.228
9,GGCCGGCAUGGUCCCAGCCUCCUCGCUGGCGCCGCCUGGGCAACAUUCCGAGGGGACCGUCCCCUCGGUAAUGGAGAAUGGGACCCA [G35C C75A],0.225
10,GGCCGGCAUGGUCCCAGCCUCCUCGCUGGCGCCGCCUGGGCAACAUUCCGAGGGGACCGUCCCCUCGGUAAUGGCGAAUGGGAACCA [G35C C84A],0.271
11,GGCCGGCAUGGUCCCAGCCUCCUCGCUGGCGCCGCCUGGGCAACAUUCCGAGGGGACCGUCCCCUCGGUAAUGGCGAAUGGGAGCCA [G35C C84G],0.116
12,GGCCGGCAUGGUCCCAGCCUCCUCGCUGGCGCCGCCUGGGCAACAUUCCGAGGGGACCGUCCCCUCGGUAAUGGCGAAUGGGACGCA [G35C C85G],0.0923
13,GGCCGGCAUGGUCCCAGCCUCCUCGCUGGCGCCGCCUGGGCAACAUUCCGAGGGGACCGUCCCCUCGGUAAUGGCGAAUGGGACCAA [G35C C86A],0.212
14,GGCCGGCAUGGUCCCAGCCUCCUCGCUGGCGCCGCCUUGGCAACAUUCCGAGGGGACCGUCCCCUCGGUAAUGGCGAAUGGGACCCA [G35C G38U],0.0875
15,GGCCGGCAUGGUCCCAGCCUCCUCGCUGGCGCCGCCUGUGCAACAUUCCGAGGGGACCGUCCCCUCGGUAAUGGCGAAUGGGACCCA [G35C G39U],0.0302
16,GGCCGGCAUGGUCCCAGCCUCCUCGCUGGCGCCGCCUGGACAACAUUCCGAGGGGACCGUCCCCUCGGUAAUGGCGAAUGGGACCCA [G35C G40A],0.271
17,GGCCGGCAUGGUCCCAGCCUCCUCGCUGGCGCCGCCUGGGCAACAUUCCGAAGGGACCGUCCCCUCGGUAAUGGCGAAUGGGACCCA [G35C G52A],0.233
18,GGCCGGCAUGGUCCCAGCCUCCUCGCUGGCGCCGCCUGGGCAACAUUCCGACGGGACCGUCCCCUCGGUAAUGGCGAAUGGGACCCA [G35C G52C],0.128
19,GGCCGGCAUGGUCCCAGCCUCCUCGCUGGCGCCGCCUGGGCAACAUUCCGAUGGGACCGUCCCCUCGGUAAUGGCGAAUGGGACCCA [G35C G52U],0.318
20,GGCCGGCAUGGUCCCAGCCUCCUCGCUGGCGCCGCCUGGGCAACAUUCCGAGAGGACCGUCCCCUCGGUAAUGGCGAAUGGGACCCA [G35C G53A],0.172
